Source: article PMC5733030, “Characterizing Isozymes of Chlorite Dismutase for Water Treatment” (Frontiers in Microbiology, 2017)

Experiments:
Assay in all cases: chloride ion selective electrode, initial rates, Michaelis-Menten fit
Conditions in all cases: 10 mM phosphate buffer pH 7.0, 21–23°C, soluble protein fraction
[1] = substrate: [O-][Cl+]O; format: biochemical, Nitrospira defluvii
Description: chloride ion selective electrode, initial rates, Michaelis-Menten fit on rNdCld

[2] = substrate: [O-][Cl+]O; format: biochemical, Ideonella dechloratans
Description: chloride ion selective electrode, initial rates, Michaelis-Menten fit on rIdCld

[3] = substrate: [O-][Cl+]O; format: biochemical, Nitrobacter winogradskyi
Description: chloride ion selective electrode, initial rates, Michaelis-Menten fit on rNwCld

B1: rNdCld (Nitrospira defluvii) (protein)
chain: ADREKLLTESGVYGTFATFQMDHDWWDLPGESRVISVAEVKGLVEQWSGKILVESYLLRGLSDHADLMFRVHARTLSDTQQFLSAFMGTRLGRHLTSGGLLHGVSKKPTYVAGFPESMKTELQVNGESGSRPYAIVIPIKKDAEWWALDQEARTALMQEHTQAALPYLKTVKRKLYHSTGLDDVDFITYFETERLEDFHNLVRALQQVKEFRHNRRFGHPTLLGTMSPLDEILEKFAQ
notes: recombinant, plasmid pET21b-Ndcld (Dr. Daims) in E. coli BL21 (DE3); soluble protein fraction, not purified
For B1, the Km [1] was 2500 ± 470 µM.

B2: rIdCld (Ideonella dechloratans) (protein)
chain: AMNTPVDRAKILSAPGVFVAFSTYKIRPDYFKVALAERKGAADEVMAVLEKHKEKVIVDAYLTRGYEAKSDYFLRVHAYDAVAAQAFLVDFRATRFGMYSDVTESLVGITKALNYISKDKSPDLNKGLSGATYAGDAPRFAFMIPVKKNADWWNLTDEQRLKEMETHTLPTLPFLVNVKRKLYHSTGLDDTDFITYFETNDLGAFNNLMLSLAKVPENKYHVRWGNPTVLGTIQPIENLVKTLSMGN
notes: recombinant, plasmid pET3a-Idcld (Dr. Rova) in E. coli BL21 (DE3); soluble protein fraction, not purified
B2 gave a Km [2] of 320 ± 160 µM.

B3: rNwCld (Nitrobacter winogradskyi Nb-255) (protein)
chain: MTFTVFTGGDSGAWSILSVAPVIGESLMAASHLAIAPSLSLGDTSATTPWQLRGVASHARYVERAEKIALTSVQAGLGRNEATRAALIPIRKSAAWWEMTQDERRAIFEDKSHHIAASLKYLPAIARQLYHCRDIGEPFDFLTWFEYAPEHATMFEDLVGVLRATEEWTYVEREVDIRLARAI
notes: recombinant, plasmid pET21b-Nwcld (Dr. Daims) in E. coli BL21 (DE3); soluble protein fraction, not purified
For B3, the Km [3] was 380 ± 150 µM.
